Reference: patent US20090123474A1, “COMBINATION OF ANGIOPOIETIN-2 ANTAGONIST AND OF VEGF-A, KDR AND/OR FLTL ANTAGONIST FOR TREATING CANCER” (ASTRAZENECA AB, priority 2005, published 2009)

Key:
[1] = molecular target: T1, Angiopoietin-2 binding to Tie-2 (Homo sapiens, UniProt O15123); assay: Competitive binding assay (modified ELISA): inhibition of Angiopoietin-2 binding to Tie-2
T1 construct: purchased R&D Systems, Inc. BT623 (Angiopoietin-2, biotinylated); 313-TI-100 (Tie-2/Fc)
T1 sequence (O15123 19-496): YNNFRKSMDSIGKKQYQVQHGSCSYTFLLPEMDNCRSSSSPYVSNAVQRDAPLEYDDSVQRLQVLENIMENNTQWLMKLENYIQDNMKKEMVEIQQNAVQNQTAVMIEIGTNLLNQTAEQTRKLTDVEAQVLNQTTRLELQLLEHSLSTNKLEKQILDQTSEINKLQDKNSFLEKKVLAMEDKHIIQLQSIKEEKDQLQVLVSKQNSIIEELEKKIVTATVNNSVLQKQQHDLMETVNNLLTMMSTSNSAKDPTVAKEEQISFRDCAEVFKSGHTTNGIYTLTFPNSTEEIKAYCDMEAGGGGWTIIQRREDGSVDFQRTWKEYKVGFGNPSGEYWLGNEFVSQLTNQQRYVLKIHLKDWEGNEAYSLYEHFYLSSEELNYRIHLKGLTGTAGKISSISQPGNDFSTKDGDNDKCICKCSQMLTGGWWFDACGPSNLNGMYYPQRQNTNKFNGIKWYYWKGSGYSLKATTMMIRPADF
Experimental: As discussed above, Angiopoietin-2 exerts its biological effect by binding to the Tie-2 receptor. Monoclonal antibodies that inhibited Angiopoietin-2/Tie-2 binding were identified by a competitive binding assay using a modified ELISA. The mAb used were products of micro-purification from 50 ml of exhaustive supernatants of the hybridoma pools that were specific for Angiopoietin-2 (see above). 96-well Nunc Immplates™ were coated with 100 μl of recombinant human Tie-2/Fc fusion protein (R&D Systems, Inc., Cat. No. 313-TI-100) at 4 μg/ml by incubating overnight at 4° C. The plates were washed four times using Phosphate Buffer Saline (PBS) with a Skan™ Washer 300 station (SKATRON). The wells were blocked by 100 μl of ABX-blocking buffer (0.5% BSA, 0.1% Tween, 0.01% Thimerosal in PBS) for 1 hour.
Biotinylated recombinant human Angiopoietin-2 (R&D Systems, Inc. Cat. No. […] The plates were incubated at room temperature for two hours before the unbound molecules were washed off. Bound biotinylated Angiopoietin-2 was then detected using 100 μl/well of Streptavidin-HRP conjugate at 1:200 by incubating at room temperature for half an hour. After washing twice, the bound Streptavidin was detected by HRP substrate (R&D Systems, Cat. No. DY998). The plates were incubated for 30 minutes before 450 stop solution (100 μl/well, BioFX, Cat# BSTP-0100-01) was added to terminate the reaction. The light absorbance at 450 nm was determined by a Spectramax Plus reader.
Soluble recombinant Tie-2/Fc fusion protein at 10-fold molar excess to Angiopoietin-2 was used as a positive control. At this concentration, Tie-2/Fc inhibited binding of Angiopoietin-2 to immobilized Tie-2 by 80%.
To quantitate the inhibitory activities of the mAb on Angiopoietin-2 binding to Tie-2, the titer was determined for purified mAbs from the top candidates using a competitive binding assay. Each concentration of the mAb was tested in duplicate. The concentration-response relationship was found by curve fitting using Graphpad Prism™ graphic software (non-linear, Sigmoid curve). The maximal inhibition (efficacy) and IC50 (potency) were calculated by the software.

Angiopoietin-1 = molecular target: T2, Angiopoietin-1 (Homo sapiens, UniProt Q15389); assay: Biacore (SPR) medium resolution screen of mAb binding to Angiopoietin-1
T2 construct: purchased R&D Systems 293-AN-025/CF
T2 sequence (Q15389 16-498): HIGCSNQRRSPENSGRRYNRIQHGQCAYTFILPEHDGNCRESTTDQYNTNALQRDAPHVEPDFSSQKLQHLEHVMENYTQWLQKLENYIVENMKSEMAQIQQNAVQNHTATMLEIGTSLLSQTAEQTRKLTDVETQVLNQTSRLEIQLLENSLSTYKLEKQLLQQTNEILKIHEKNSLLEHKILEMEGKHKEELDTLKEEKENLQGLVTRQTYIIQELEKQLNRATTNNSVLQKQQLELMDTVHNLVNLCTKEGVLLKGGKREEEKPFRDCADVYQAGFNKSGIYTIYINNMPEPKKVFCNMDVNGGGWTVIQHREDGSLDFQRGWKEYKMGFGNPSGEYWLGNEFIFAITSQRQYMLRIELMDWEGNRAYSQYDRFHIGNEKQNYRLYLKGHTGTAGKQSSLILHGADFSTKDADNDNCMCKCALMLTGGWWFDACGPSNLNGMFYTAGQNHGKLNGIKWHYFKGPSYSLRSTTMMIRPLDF
Experimental: The cross-reactivity of the antibody to Angiopoietin-1 was further investigated by measuring the affinity of the mAbs to Angiopoietin-1. Instead of immobilizing Angiopoietin-1, as described in ELISA-based counter-binding, the mAbs were immobilized to the CM5 Biacore chips, and Angiopoietin-1 in solution was injected for the determination of the on-rate and off-rate. Six mAbs; 3.3.2, 3.31.2, 5.16.3, 5.86.1, 5.88.3 and 3.19.3 were tested.
Label-free surface plasmon resonance (SPR), or Biacore 2000 instrumentation, was utilized to measure antibody affinity to Angiopoietin-1. For this purpose, a high-density goat α-human antibody surface over a CM5 Biacore chip was prepared using routine amine coupling. For developmental experiments, purified mAbs (clones 3.3.2, 3.31.2, 5.16.3, 5.86.1, 5.88.3 and 3.19.3) were diluted to approximately 2.5-3.5 μg/ml in HBS-P running buffer containing 100 μg/ml BSA. The capture level for each mAb was approximately 150 RU. A 5-minute wash followed each capture cycle to stabilize the mAb baseline. A single Angiopoietin-1 sample diluted to 87.4 nM in the running buffer was injected for one minute over all capture surfaces. […] This experiment was repeated by increasing the mAb capture levels to well over 500-600 RU and injecting 380 nM Angiopoietin-1 for one minute. Angiopoietin-1 was again found to bind mAb 3.19.3.

[2] = system: human LoVo colon tumour xenografts; type: in vivo; settings: 3.19.3 10 mg/kg 2×wk i.p., Zactima 50 mg/kg/day p.o.
Experimental: The anti-tumor activity of monoclonal antibody 3.19.3 was evaluated in the LoVo xenograft model of colorectal cancer. Briefly, LoVo cells were cultured in flasks as routine until the cells reached sub-confluence. Immunodeficient 8 week old male NCr nude mice were used. Cell suspensions containing 3×10^6 cells were injected subcutaneously into the right flank of the mice, and after the tumour volume reached 200 mm^3, the mice were randomized in groups and the treatments were initiated. mAb 3.19.3 10 mg/kg in saline was injected intraperitoneally, twice per week for 2 weeks. Zactima™ was treated peroral daily at doses ranging from 25 to 50 mg/kg in water containing 1% Tween80. The dimensions of each tumor were measured twice per week. The volume of the tumor was calculated as: Volume=Length×(Width)^2×0.5 (cm^3).

B1: mAb 3.19.3: fully human anti-Angiopoietin-2 monoclonal antibody, variable regions SEQ ID NO: 5-8; also binds Angiopoietin-1 (antibody, V domains shown)
VH: QVQLVESGGGVVQPGRSLRLSCAASGFTFTNYGMHWGRQAPGKGLEWVAVISHDGNNKYYVDSVKGRFTISRDNSKNTLYLQMNSLRAEDTAVYYCAREGIDFWSGLNWFDPWGQGTLVTVSSA
VL: EIVLTQSPGTLSLSPGERATLSCRASQSITGSYLAWYQQKPGQAPRLLICGASSWATGIPDRFSGSGSGTDFTLTISRLEPEDFAVYYCQQYSSSPITFGQGTRLEIKR
- EC50 ([1]; potency, competitive binding of Angiopoietin-2 to Tie-2, purified mAb): 0.7976 µg/mL
- Efficacy* ([1]; ratio of bound Angiopoietin-2 with mAb (30 μg/ml) versus without mAb): 0.3945
- binding of Angiopoietin-1 to captured mAb (Angiopoietin-1; 87.4 nM Angiopoietin-1, capture level approximately 150 RU): found to bind
- binding of Angiopoietin-1 to captured mAb (Angiopoietin-1; 380 nM Angiopoietin-1, capture levels over 500-600 RU): found to bind
- tumour inhibition [2]: 48%
